Experimental data published in patent publication US20210292393A1 (published 2021).
Positions count from the first letter of the chain named.

B1: antibody 366 (antibody, V domains shown)
VH: QVQLVESGGGVVQPGRSLRLSCAASGFTFSSYAMHWVRQAPGKGLEWVAVISYDGSNKYYADSVKGRFTISRDNSKNTLYLQMNSLRAEDTAVYYCARGLVGYNWFDPWGQGTLVTVSS
VL: DIQMTQSPSSVSASVGDRVTITCRASQGISSWLAWYQQKPGKAPKLLIYAASSLQSGVPSRFSGSGSGTDFTLTISSLQPEDFATYYCQQANSFTFGPGTKVDIK
B2: antibody 348 (antibody, V domains shown)
VH: QVQLVQSGSELKKPGASVKVSCKASGYTFTSYAMNWVRQAPGQGLEWMGWINTNTGNPTYAQGFTGRFVFSLDTSVSTAYLQISSLKAEDTAVYYCARDHELPNTSSWFGHFEYWGQGTLVTVSS
VL: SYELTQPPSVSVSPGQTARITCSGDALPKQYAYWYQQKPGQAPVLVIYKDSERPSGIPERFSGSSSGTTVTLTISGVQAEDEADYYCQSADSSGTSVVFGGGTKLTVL
B3: antibody 324 (antibody, V domains shown)
VH: QVQLQESGPGLVKPSGTLSLTCAVSGGSISSSNWWSWVRQPPGKGLEWIGEIYHSGSTNYNPSLKSRVTISVDNSKNQFSLKLSSVTAADTAVYYCARESVAAAGISYYYYGMDVWGQGTTVTVSS
VL: EIVLTQSPGTLSLSPGERATLSCRASQSVSGRYLAWYQQKPGQAPRLLIYGASSRATGIPDRFSGSGSGTDFTLTISRLEPEDFAVYYCQHYGSSPGTFGQGTRLEIK
B4: antibody 331 (antibody, V domains shown)
V domain 1: QITLKESGPTLVKPTETLTLTCSFSGFSLTKTGEAAGWIRQAPGRALEWVTVIFWDDDKRYSPSLQNRISVTKDTSKNQVVLRMTNVARFDTGTYFCWAMGGPGKEYFGQGTLVAVSS
V domain 2: QSVLTQPPSVSGAPGQRVTISCTGTSSSIGPYSDVHWYQHVSGKAPRLLIFGNSNRPSGVPDRFSGSKSGTSASLVIAGLQAEDEADYYCQSYDSSLGEIYVFGTGTTVTVL
B5: antibody 339 (antibody, V domains shown)
V domain 1: B4 V domain 1 with K31R, N67S, I69L, S70T, R83T, G93A, L113Q
V domain 2: B4 V domain 2
B6: antibody 329 (antibody, V domains shown)
VH: EVQLVESGGGLVQPGGSLRLSCAASGFTFSSYWMHWVRQAPGKGLVWVSRINSDGSSTSYADSVKGRFTISRDNAKNTLYLQMNSLRAEDTAVYYCAREGIVATITLDYWGQGTLVTVSS
VL: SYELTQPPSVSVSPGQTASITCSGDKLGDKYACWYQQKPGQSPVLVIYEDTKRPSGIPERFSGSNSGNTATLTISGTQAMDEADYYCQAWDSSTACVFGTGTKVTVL
B7: antibody 344 (antibody, V domains shown)
VH: QVQLVESGGGVVQPGRSLRLSCAASGFTFSSYAMHWVRQAPGKGLEWMAVISYDGSNKYYADSVKGRFTISRDNSKNTLYLQMNSLRAEDTAVYFCAKGYSGSYYEPFDYWGQGTLVTVSS
VL: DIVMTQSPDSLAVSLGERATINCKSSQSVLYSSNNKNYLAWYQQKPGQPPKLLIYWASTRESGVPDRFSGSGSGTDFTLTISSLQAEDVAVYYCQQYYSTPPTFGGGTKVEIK
B8: antibody 345 (antibody, V domains shown)
VH: QVQLQESGPGLVKPSQTLSLTCTVSGGSISSGDYYWSWIRQPPGKGLEWIGYIYYSGSTYYNPSLKSRVTISVDTSKNQFSLKLSSVTAADTAVYYCARVGMVDNWNFEGNWFDPWGQGTLVTVSS
VL: QSALTQPRSVSGSPGQSVTISCTGTSSDVGGYNYVSWYQQHPGKAPKLMIYDVSKRPSGVPDRFSGSKSGNTASLTISGLQAEDEADYYCCSYAGSVVFGGGTKLTVL
B9: antibody 326 (antibody, V domains shown)
VH: QITLKESGPTLVKPTQTLTLTCTFSGFSLNTSGVGVGWIRQPPGKALEWLSLIFWNDDKRYSPSLRSRLTITKDTSKNQVVLTMTNMDPVDTATYFCAHRNSGWSLKFDSWGQGSLVTVSA
VL: DIQMTQSPSSVSASVGDRVTITCRARQGISSWLVWYQQKPGKAPKLLIFGASSLQSGVPSRFNASGTGTEFTLTISSLQPEDFATYYCQQADSFPITFGQGTRLEIK
B10: antibody 320 (antibody, V domains shown)
VH: QVQLVQSGAEVKKPGASVKVSCKASGYTFTSYGISWVRQAPGQGLEWMGWISAYNGNTNYAQKLQGRVTMTTDTSTRTAYMELRSLRSDDTAVYYCARVGCYYDSSGYSCAENFQHWGQGTLVTVSS
VL: QSVLTQPPSVSGAPGQRVTISCTGSSSNIGAGYDVHWYQQLPGTAPKLLIYGNSNRPSGVPDRFSGSKSGTSASLAITGLQAEDEADYYCQSYDSSLSALFGGGTKLTVL
B11: antibody 363 (antibody, V domains shown)
VH: EVQLLESGGGLVQPGGSLRLSCAASGFTFSTYAMSWVRQAPGKGLEWVSAISGSGGSTYYADSVKGRFTISRDNSKNTLYLQMNSLRAEDTAVYYCASGYSPDYWGQGTLVTVSS
VL: not shown
B12: antibody 340 (antibody, V domains shown)
VH: QVQLVQSGAEVKKPGASVKVSCKASGYTFTSYDINWVRQATGQGLEWMGWMNPNSGNTGYAQKFQGRVTMTRNTSISTAYMELSSLRSEDTAVYYCARGRYCTGGVCWGDWYFDLWGRGTLVTVSS
VL: QSVLTQPPSVSGAPGQRVTISCTGSSSNIGAGYDVHWYQQLPGTAPKFLIYGNSNRPSGVPDRFSGSKSGTSASLAITGLQAEDEADYYCQSYDSSLSGPVFGGGTKLTVL
B13: antibody 316 (antibody, V domains shown)
VH: QVHLVESGGGVVQPGRSLRLSCAASGFTLTAYAMHWVRQAPGKRLEWVALISYDGSVKKYADSVKGRITVSGDTSTNTLHLQMNSLRADDTAVYYCVRGGVSGPNSFDLWGQGTMVTVSS
VL: DVVMTQSPLSLPVTLGQPASMSCRSSQSLEYSDGNTYVNWFHQRPGQSPRRLIYKVSYRDSGVPDRFSGSGSGTDFTLQISRVEAEDVGIYYCMQGTHWPVTFGQGTKVEIK
B14: antibody 327 (antibody, V domains shown)
VH: QVQLVESGGGVVQPGRSLRLSCAASGFNLSNYAMHWVRQASGKGLEWVSLISYDGSIKYYTDSVKGRFTVSGDNSKNTLFLQMNSLRPDDSALYYCVRGGVSGPNSFDMWGQGTTVTVSS
VL: B13 VL with M21I, E30V, H42Q, K55Q, Y58I, D60A, T77A, Q79K
B15: antibody 365 (antibody, V domains shown)
VH: B14 VH with N31S
VL: B13 VL with M21I, E30V, H42Q, Y58I, D60A, T77A, Q79K, I90V
B16: antibody 323 (antibody, V domains shown)
VH: QVQLVQSGAEVKKPGASVKVSCKVSGYTLTELSMHWVRQAPGKGLEWMGGFDPEDGETIYAQKFQGRVTMTEDTSTDTAYMELSSLRSEDTAVYYCATSTIFAPGGWFDPWGQGTLVTVSS
VL: QSALTQPASVSGSPGQSITISCTGTSSDVGSYNLVSWYQQHPGKAPKLMIYEVSKRPSGVSNRFSGSKSGNTASLTISGLQAEDEADYYCCSYAGSTHYVFGTGTKVTVL
B17: antibody 317 (antibody, V domains shown)
VH: QVQLVQSGAEVKKPGASVKVSCKVSGYTLTELSMHWVRQAPGKGLEWMGGFDPEDGETIYAQKFQGRVTMTEDTSTDTAYMELSSLRSEDTAVYYCASSPAAAGTSQYYYYYGMDVWGQGTTVTVSS
VL: not shown
B18: antibody 523 (antibody, V domains shown)
VH: EVQLVESGGVSVQPGGSLRLSCAASGFSFNTYDMHWVRQGTGKGLEWVSGIGTAGDTYYSDSVKGRCTISRDNAKNSLHLLVKSVRAADTAVYYCARGVGGIIDYWGQGTLVTVSS
VL: NFVLSQPHSVSESPGKTVTISCTGNSGSIATKYVQWFQQRPGSAPTTVIYEDNQRPSGVPDRFSGSSDSSSNSASLTISGLKTEDEAHYYCQSYHNRRWVFGGGTKLTVL
B19: antibody 527 (antibody, V domains shown)
VH: QLQLQESGPGLVKPSETLSLTCTVSGGSISSSSYYWGWIRQPPGKGLEWIGSIYYSGSTYYNPSLKSRVTISVDTSKNQFSLKLSSVTAADTAMYYCASHVVVIASSYWCFDLWGRGTLVTVSS
VL: QSALTQPASVSGSPGQSITISCTGTSSDVGGYNYVSWYQQHPGKAPKLMIYDVSNRPSGVSNRFSGSKSGNTASLTISGLQAEDEADYYCSSYTSISTWVFGGGTKLTVL
B20: antibody 522 (antibody, V domains shown)
VH: EVQLVESGGGLVQPGGSLRLSCAASGFNFSSYSMNWVRQAPGKGLEWVSYISSSSSTIYYADSVKGRFTISRDNAKNSLYLQMNSLRDEDTAVYYCARGPEWDIVVVQAENWFDPWGQGTLVTVSS
VL: SYELTQPPSVSVSPGQTARITCSGDALPKQYVYWYQQKPGQAPVLVIYKDSERPSGIPERFSGSSSGTTVTLTISGVQAEDEADYYCQSADSSGTYRGVFGGGTKLTVL
B21: antibody 514 (antibody, V domains shown)
VH: EVQLVQSGAEVKKPGATVKISCKVSGYTFTDYYMHWVQQAPGKGLEWMGLVDPEDGETIYAEKFQGRVTITADTSTDTAYMELSSLRSEDTAVYYCATDCKYDILTGHYSAGYYYYGMDVWGQGTTVTVSS
VL: DIQMTQSPSSLSASVGDRVTITCRASQGISNYLAWFQQKPGKAPKSLIYAASSLQSGVPSKFSGSGSGTDFTLTISSLQPEDFATYYCQQYNSYPFTFGGGTKVEIK
B22: antibody 517 (antibody, V domains shown)
VH: B14 VH with P88A
VL: B13 VL with M21I, E30V, H42Q, K55Q, Y58I, D60A, T77A, Q79K, I90V
B23: antibody 516 (antibody, V domains shown)
VH: QVELQQWGAGLLKPSETLSLTCAVYGGSFSGYYWSWIRQPPGKGLEWIGEINHSGSTNYNPSLKSRVTISIDTSKNQFSLKLSSVTAADTAVYYCARGTTVTTFFAPHWYFDLWGRGTLVTVSS
VL: QSALTQPASVSGSPGQSITISCTGTSSDVGGYNYVSWYQQHPGKAPKLMIYDVSNRPSGVSNRFSGSKSGNTASLTISGLQAEDEADYYCSSYTSSSTPYVFGTGTKVTVL

biological target: SARS-CoV-2 full length spike protein, V483A mutant, expressed on the surface of CHO cells (SARS-CoV-2, UniProt P0DTC2 14-1273)

Question: For B1, which “median fluorescence intensity, fold over isotype control” value (“median fluorescence intensity, fold” below) is on record?
Answer: 9.74 fold over isotype

Question: How did the “median fluorescence intensity, fold” value turn out when B2 was run?
Answer: 14.2 fold over isotype

Question: B3 was tested. Which “median fluorescence intensity, fold” value did it give?
Answer: 24.9 fold over isotype

Question: For B4, which “median fluorescence intensity, fold” value is on record?
Answer: 18.1 fold over isotype

Question: B5 was tested. Which “median fluorescence intensity, fold” value did it give?
Answer: 18.2 fold over isotype

Question: How did the “median fluorescence intensity, fold” value turn out when B6 was run?
Answer: 10.6 fold over isotype

Question: With B7 as the binder, how does the “median fluorescence intensity, fold” value read?
Answer: 8.15 fold over isotype

Question: How did the “median fluorescence intensity, fold” value turn out when B8 was run?
Answer: 9.41 fold over isotype

Question: For B9, which “median fluorescence intensity, fold” value is on record?
Answer: 10.2 fold over isotype

Question: Which “median fluorescence intensity, fold” value does the source give for B10 here?
Answer: 19.7 fold over isotype

Question: With B11 as the binder, how does the “median fluorescence intensity, fold” value read?
Answer: 15.1 fold over isotype

Question: For B12, which “median fluorescence intensity, fold” value is on record?
Answer: 26.3 fold over isotype

Question: B13 was tested. Which “median fluorescence intensity, fold” value did it give?
Answer: 10.4 fold over isotype

Question: How did the “median fluorescence intensity, fold” value turn out when B14 was run?
Answer: 10.4 fold over isotype

Question: Which “median fluorescence intensity, fold” value does the source give for B15 here?
Answer: 11.2 fold over isotype

Question: How did the “median fluorescence intensity, fold” value turn out when B16 was run?
Answer: 19 fold over isotype

Question: B17 was tested. Which “median fluorescence intensity, fold” value did it give?
Answer: 10.3 fold over isotype

biological target: SARS-CoV-2 full length spike protein, V483A mutant (SARS-CoV-2, UniProt P0DTC2 14-1273)

Question: For B18, which “median fold over isotype” value is on record?
Answer: 3.76 fold over isotype

Question: How did the “median fold over isotype” value turn out when B19 was run?
Answer: 7.97 fold over isotype

Question: Which “median fold over isotype” value does the source give for B20 here?
Answer: 6.75 fold over isotype

Question: With B21 as the binder, how does the “median fold over isotype” value read?
Answer: 1.39 fold over isotype

Question: With B22 as the binder, how does the “median fold over isotype” value read?
Answer: 11.5 fold over isotype

Question: How did the “median fold over isotype” value turn out when B23 was run?
Answer: 2.61 fold over isotype
